*1 amine or outer side, *2 acyl side, *3 side chain or, on linkers, in order; H or OH if unused. Side-chain parts run from the residue outwards. The star is where a group is joined. C18 diacid = O=C(O)CCCCCCCCCCCCCCCCC(=O)*; γGlu = O=C(O)[C@H](CCC(=O)[*:2])N[*:1]; Isovaleryl = CC(C)CC(=O)*; Ahx = NCCCCCC(=O)O
T1: human NPY5 receptor (human, UniProt Q15761 1-445)
T1 sequence (looked up): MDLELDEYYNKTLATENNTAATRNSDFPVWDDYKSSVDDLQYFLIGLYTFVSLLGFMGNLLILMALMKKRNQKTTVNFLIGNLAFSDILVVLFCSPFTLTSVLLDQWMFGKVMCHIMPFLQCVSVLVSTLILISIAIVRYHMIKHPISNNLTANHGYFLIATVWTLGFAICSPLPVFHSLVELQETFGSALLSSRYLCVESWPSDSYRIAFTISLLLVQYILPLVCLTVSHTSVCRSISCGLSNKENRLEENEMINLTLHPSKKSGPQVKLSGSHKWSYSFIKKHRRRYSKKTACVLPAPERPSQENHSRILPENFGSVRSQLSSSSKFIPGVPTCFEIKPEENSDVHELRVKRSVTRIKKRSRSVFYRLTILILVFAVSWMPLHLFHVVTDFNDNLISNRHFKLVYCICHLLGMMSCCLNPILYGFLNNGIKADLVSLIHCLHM

T2: human NPY2 receptor (human, UniProt P49146 1-381)
T2 sequence (looked up): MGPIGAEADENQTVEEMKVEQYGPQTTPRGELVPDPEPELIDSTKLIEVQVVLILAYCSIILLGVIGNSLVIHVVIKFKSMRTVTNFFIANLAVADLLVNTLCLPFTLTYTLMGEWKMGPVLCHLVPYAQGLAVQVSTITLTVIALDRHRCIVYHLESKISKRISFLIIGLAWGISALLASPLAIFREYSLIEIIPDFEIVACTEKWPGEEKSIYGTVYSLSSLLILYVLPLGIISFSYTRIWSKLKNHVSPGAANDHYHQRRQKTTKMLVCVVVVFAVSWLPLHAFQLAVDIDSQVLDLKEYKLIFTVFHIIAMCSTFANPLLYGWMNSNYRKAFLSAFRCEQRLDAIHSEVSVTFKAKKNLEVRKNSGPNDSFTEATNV

B1: Compound 12 (peptide)
peptide: Isovaleryl-APEK([Ahx-γGlu-C18 diacid])PEEDASPEELQQYYVSLRHYYHWLTRQRY-NH2
SMILES: CC(C)CC(=O)N[C@@H](C)C(=O)N1CCC[C@H]1C(=O)N[C@@H](CCC(=O)O)C(=O)N[C@@H](CCCCNC(=O)CCCCCNC(=O)CC[C@H](NC(=O)CCCCCCCCCCCCCCCCC(=O)O)C(=O)O)C(=O)N1CCC[C@H]1C(=O)N[C@@H](CCC(=O)O)C(=O)N[C@@H](CCC(=O)O)C(=O)N[C@@H](CC(=O)O)C(=O)N[C@@H](C)C(=O)N[C@@H](CO)C(=O)N1CCC[C@H]1C(=O)N[C@@H](CCC(=O)O)C(=O)N[C@@H](CCC(=O)O)C(=O)N[C@@H](CC(C)C)C(=O)N[C@@H](CCC(N)=O)C(=O)N[C@@H](CCC(N)=O)C(=O)N[C@@H](Cc1ccc(O)cc1)C(=O)N[C@@H](Cc1ccc(O)cc1)C(=O)N[C@H](C(=O)N[C@@H](CO)C(=O)N[C@@H](CC(C)C)C(=O)N[C@@H](CCCNC(=N)N)C(=O)N[C@@H](Cc1c[nH]cn1)C(=O)N[C@@H](Cc1ccc(O)cc1)C(=O)N[C@@H](Cc1ccc(O)cc1)C(=O)N[C@@H](Cc1c[nH]cn1)C(=O)N[C@@H](Cc1c[nH]c2ccccc12)C(=O)N[C@@H](CC(C)C)C(=O)N[C@H](C(=O)N[C@@H](CCCNC(=N)N)C(=O)N[C@@H](CCC(N)=O)C(=O)N[C@@H](CCCNC(=N)N)C(=O)N[C@@H](Cc1ccc(O)cc1)C(N)=O)[C@@H](C)O)C(C)C
B2: Compound 140 (peptide)
peptide: Isovaleryl-APEK([Ahx-γGlu-C18 diacid])PEADASPEEIQRYYVSLRHYYNWLTRQRY-NH2
B3: Compound 199 (peptide)
peptide: Isovaleryl-APAK([Ahx-γGlu-C18 diacid])PEEEASPEELQRYYVSLRHYYNWLTRQRY-NH2
SMILES: CC(C)CC(=O)N[C@@H](C)C(=O)N1CCC[C@H]1C(=O)N[C@@H](C)C(=O)N[C@@H](CCCCNC(=O)CCCCCNC(=O)CC[C@H](NC(=O)CCCCCCCCCCCCCCCCC(=O)O)C(=O)O)C(=O)N1CCC[C@H]1C(=O)N[C@@H](CCC(=O)O)C(=O)N[C@@H](CCC(=O)O)C(=O)N[C@@H](CCC(=O)O)C(=O)N[C@@H](C)C(=O)N[C@@H](CO)C(=O)N1CCC[C@H]1C(=O)N[C@@H](CCC(=O)O)C(=O)N[C@@H](CCC(=O)O)C(=O)N[C@@H](CC(C)C)C(=O)N[C@@H](CCC(N)=O)C(=O)N[C@@H](CCCNC(=N)N)C(=O)N[C@@H](Cc1ccc(O)cc1)C(=O)N[C@@H](Cc1ccc(O)cc1)C(=O)N[C@H](C(=O)N[C@@H](CO)C(=O)N[C@@H](CC(C)C)C(=O)N[C@@H](CCCNC(=N)N)C(=O)N[C@@H](Cc1c[nH]cn1)C(=O)N[C@@H](Cc1ccc(O)cc1)C(=O)N[C@@H](Cc1ccc(O)cc1)C(=O)N[C@@H](CC(N)=O)C(=O)N[C@@H](Cc1c[nH]c2ccccc12)C(=O)N[C@@H](CC(C)C)C(=O)N[C@H](C(=O)N[C@@H](CCCNC(=N)N)C(=O)N[C@@H](CCC(N)=O)C(=O)N[C@@H](CCCNC(=N)N)C(=O)N[C@@H](Cc1ccc(O)cc1)C(N)=O)[C@@H](C)O)C(C)C
B4: Compound 198 (peptide)
peptide: Isovaleryl-APAK([Ahx-γGlu-C18 diacid])PEADAEPEEIQRYYVSLRHYYNWLTRQRY-NH2
SMILES: CC[C@H](C)[C@H](NC(=O)[C@H](CCC(=O)O)NC(=O)[C@H](CCC(=O)O)NC(=O)[C@@H]1CCCN1C(=O)[C@H](CCC(=O)O)NC(=O)[C@H](C)NC(=O)[C@H](CC(=O)O)NC(=O)[C@H](C)NC(=O)[C@H](CCC(=O)O)NC(=O)[C@@H]1CCCN1C(=O)[C@H](CCCCNC(=O)CCCCCNC(=O)CC[C@H](NC(=O)CCCCCCCCCCCCCCCCC(=O)O)C(=O)O)NC(=O)[C@H](C)NC(=O)[C@@H]1CCCN1C(=O)[C@H](C)NC(=O)CC(C)C)C(=O)N[C@@H](CCC(N)=O)C(=O)N[C@@H](CCCNC(=N)N)C(=O)N[C@@H](Cc1ccc(O)cc1)C(=O)N[C@@H](Cc1ccc(O)cc1)C(=O)N[C@H](C(=O)N[C@@H](CO)C(=O)N[C@@H](CC(C)C)C(=O)N[C@@H](CCCNC(=N)N)C(=O)N[C@@H](Cc1c[nH]cn1)C(=O)N[C@@H](Cc1ccc(O)cc1)C(=O)N[C@@H](Cc1ccc(O)cc1)C(=O)N[C@@H](CC(N)=O)C(=O)N[C@@H](Cc1c[nH]c2ccccc12)C(=O)N[C@@H](CC(C)C)C(=O)N[C@H](C(=O)N[C@@H](CCCNC(=N)N)C(=O)N[C@@H](CCC(N)=O)C(=O)N[C@@H](CCCNC(=N)N)C(=O)N[C@@H](Cc1ccc(O)cc1)C(N)=O)[C@@H](C)O)C(C)C
B5: Compound 192 (peptide)
peptide: Isovaleryl-APEK([Ahx-γGlu-C18 diacid])PEAPASPEELQRYYVSLRHYYNWLTRQRY-NH2
SMILES: CC(C)CC(=O)N[C@@H](C)C(=O)N1CCC[C@H]1C(=O)N[C@@H](CCC(=O)O)C(=O)N[C@@H](CCCCNC(=O)CCCCCNC(=O)CC[C@H](NC(=O)CCCCCCCCCCCCCCCCC(=O)O)C(=O)O)C(=O)N1CCC[C@H]1C(=O)N[C@@H](CCC(=O)O)C(=O)N[C@@H](C)C(=O)N1CCC[C@H]1C(=O)N[C@@H](C)C(=O)N[C@@H](CO)C(=O)N1CCC[C@H]1C(=O)N[C@@H](CCC(=O)O)C(=O)N[C@@H](CCC(=O)O)C(=O)N[C@@H](CC(C)C)C(=O)N[C@@H](CCC(N)=O)C(=O)N[C@@H](CCCNC(=N)N)C(=O)N[C@@H](Cc1ccc(O)cc1)C(=O)N[C@@H](Cc1ccc(O)cc1)C(=O)N[C@H](C(=O)N[C@@H](CO)C(=O)N[C@@H](CC(C)C)C(=O)N[C@@H](CCCNC(=N)N)C(=O)N[C@@H](Cc1c[nH]cn1)C(=O)N[C@@H](Cc1ccc(O)cc1)C(=O)N[C@@H](Cc1ccc(O)cc1)C(=O)N[C@@H](CC(N)=O)C(=O)N[C@@H](Cc1c[nH]c2ccccc12)C(=O)N[C@@H](CC(C)C)C(=O)N[C@H](C(=O)N[C@@H](CCCNC(=N)N)C(=O)N[C@@H](CCC(N)=O)C(=O)N[C@@H](CCCNC(=N)N)C(=O)N[C@@H](Cc1ccc(O)cc1)C(N)=O)[C@@H](C)O)C(C)C
B6: Compound 191 (peptide)
peptide: Isovaleryl-APEK([Ahx-γGlu-C18 diacid])PEEDATPEEIQRYYESLRHYYNWLTRQRY-NH2
SMILES: CC[C@H](C)[C@H](NC(=O)[C@H](CCC(=O)O)NC(=O)[C@H](CCC(=O)O)NC(=O)[C@@H]1CCCN1C(=O)[C@@H](NC(=O)[C@H](C)NC(=O)[C@H](CC(=O)O)NC(=O)[C@H](CCC(=O)O)NC(=O)[C@H](CCC(=O)O)NC(=O)[C@@H]1CCCN1C(=O)[C@H](CCCCNC(=O)CCCCCNC(=O)CC[C@H](NC(=O)CCCCCCCCCCCCCCCCC(=O)O)C(=O)O)NC(=O)[C@H](CCC(=O)O)NC(=O)[C@@H]1CCCN1C(=O)[C@H](C)NC(=O)CC(C)C)[C@@H](C)O)C(=O)N[C@@H](CCC(N)=O)C(=O)N[C@@H](CCCNC(=N)N)C(=O)N[C@@H](Cc1ccc(O)cc1)C(=O)N[C@@H](Cc1ccc(O)cc1)C(=O)N[C@@H](CCC(=O)O)C(=O)N[C@@H](CO)C(=O)N[C@@H](CC(C)C)C(=O)N[C@@H](CCCNC(=N)N)C(=O)N[C@@H](Cc1c[nH]cn1)C(=O)N[C@@H](Cc1ccc(O)cc1)C(=O)N[C@@H](Cc1ccc(O)cc1)C(=O)N[C@@H](CC(N)=O)C(=O)N[C@@H](Cc1c[nH]c2ccccc12)C(=O)N[C@@H](CC(C)C)C(=O)N[C@H](C(=O)N[C@@H](CCCNC(=N)N)C(=O)N[C@@H](CCC(N)=O)C(=O)N[C@@H](CCCNC(=N)N)C(=O)N[C@@H](Cc1ccc(O)cc1)C(N)=O)[C@@H](C)O
B7: Compound 174 (peptide)
peptide: Isovaleryl-APEK([Ahx-γGlu-C18 diacid])PGADASPEKLQRYYVSLRHYYHKLTRQRY-NH2
SMILES: CC(C)CC(=O)N[C@@H](C)C(=O)N1CCC[C@H]1C(=O)N[C@@H](CCC(=O)O)C(=O)N[C@@H](CCCCNC(=O)CCCCCNC(=O)CC[C@H](NC(=O)CCCCCCCCCCCCCCCCC(=O)O)C(=O)O)C(=O)N1CCC[C@H]1C(=O)NCC(=O)N[C@@H](C)C(=O)N[C@@H](CC(=O)O)C(=O)N[C@@H](C)C(=O)N[C@@H](CO)C(=O)N1CCC[C@H]1C(=O)N[C@@H](CCC(=O)O)C(=O)N[C@@H](CCCCN)C(=O)N[C@@H](CC(C)C)C(=O)N[C@@H](CCC(N)=O)C(=O)N[C@@H](CCCNC(=N)N)C(=O)N[C@@H](Cc1ccc(O)cc1)C(=O)N[C@@H](Cc1ccc(O)cc1)C(=O)N[C@H](C(=O)N[C@@H](CO)C(=O)N[C@@H](CC(C)C)C(=O)N[C@@H](CCCNC(=N)N)C(=O)N[C@@H](Cc1c[nH]cn1)C(=O)N[C@@H](Cc1ccc(O)cc1)C(=O)N[C@@H](Cc1ccc(O)cc1)C(=O)N[C@@H](Cc1c[nH]cn1)C(=O)N[C@@H](CCCCN)C(=O)N[C@@H](CC(C)C)C(=O)N[C@H](C(=O)N[C@@H](CCCNC(=N)N)C(=O)N[C@@H](CCC(N)=O)C(=O)N[C@@H](CCCNC(=N)N)C(=O)N[C@@H](Cc1ccc(O)cc1)C(N)=O)[C@@H](C)O)C(C)C

What follows are binders tested against T1, human NPY5 receptor (assay: cell-based or functional assay).

EC50, HTRF cAMP Gi assay [nM]	Binder
> 5000	B1
> 5000	B2

These binders were tested against T2, human NPY2 receptor (assay: cell-based or functional assay).

EC50, HTRF cAMP Gi assay [nM]	Binder
0.25	B1

What follows are binders tested against T2, human NPY2 receptor (assay: RLB: displacement of 125I-PYY(1-36) from hNPY2R membranes).

Ki [nM]	Binder
4.16	B1
2.87	B3
1.41	B2
1.38	B4
0.74	B5
8.32	B6
0.21	B7
